For orientation: stoichiometry N means the number of molecules, sites or subunits per partner or assembly.

In the assay the target is Arabidopsis thaliana aquaporin AtTIP2;1 (Arabidopsis thaliana) (UniProt Q41951). Description: crystal structure; AtTIP2;1 solubilised by n-octyl-β-D-glucoside, hanging drop vapor diffusion at room temperature, 50 mM magnesium/sodium acetate pH 5.0, 28% (v/v) PEG 400; space group I 4, 1.18 Å, partial twinning.

Consider “Arabidopsis thaliana aquaporin AtTIP2;1 (from UniProt Q41951 2-250) (natural protein)”, for which the stoichiometry N was found to be 4.

These data come from article PMC4814140.
